T1: SARS-CoV-2 S fusion peptide K811[…]825 (SARS-CoV-2)
T1 construct: source: synthetic peptide
T1 chain: KPSKRSFIEDLLFNK

T2: 229E S protein (commercially available, recombinant) (human coronavirus 229E, strain of …)
T2 chain: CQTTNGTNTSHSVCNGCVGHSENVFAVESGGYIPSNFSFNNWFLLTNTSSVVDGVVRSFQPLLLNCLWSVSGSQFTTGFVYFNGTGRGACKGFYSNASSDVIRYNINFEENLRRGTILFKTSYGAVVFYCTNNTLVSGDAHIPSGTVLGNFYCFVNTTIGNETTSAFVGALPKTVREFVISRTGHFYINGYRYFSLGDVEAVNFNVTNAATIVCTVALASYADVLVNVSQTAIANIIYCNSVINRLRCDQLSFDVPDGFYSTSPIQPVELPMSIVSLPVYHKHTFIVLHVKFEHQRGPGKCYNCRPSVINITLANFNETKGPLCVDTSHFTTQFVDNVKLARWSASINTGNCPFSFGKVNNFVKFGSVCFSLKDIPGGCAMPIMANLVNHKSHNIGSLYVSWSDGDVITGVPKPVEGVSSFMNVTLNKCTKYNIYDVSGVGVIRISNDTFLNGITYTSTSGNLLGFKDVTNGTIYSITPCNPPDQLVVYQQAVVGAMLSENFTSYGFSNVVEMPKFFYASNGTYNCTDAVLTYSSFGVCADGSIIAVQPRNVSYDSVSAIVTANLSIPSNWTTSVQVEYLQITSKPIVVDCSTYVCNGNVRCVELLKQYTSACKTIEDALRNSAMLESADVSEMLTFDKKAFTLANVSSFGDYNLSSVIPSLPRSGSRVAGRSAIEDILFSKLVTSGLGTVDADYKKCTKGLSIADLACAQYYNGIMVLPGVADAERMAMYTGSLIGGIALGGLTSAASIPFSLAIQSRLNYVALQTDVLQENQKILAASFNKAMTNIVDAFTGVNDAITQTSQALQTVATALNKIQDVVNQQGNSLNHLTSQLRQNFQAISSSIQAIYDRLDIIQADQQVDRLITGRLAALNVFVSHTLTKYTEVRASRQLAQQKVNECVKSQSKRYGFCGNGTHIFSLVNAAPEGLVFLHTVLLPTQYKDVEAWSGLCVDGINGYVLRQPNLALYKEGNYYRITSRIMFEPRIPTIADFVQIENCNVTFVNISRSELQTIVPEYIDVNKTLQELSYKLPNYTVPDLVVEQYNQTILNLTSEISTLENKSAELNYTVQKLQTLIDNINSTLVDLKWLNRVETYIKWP

B1: C13B8 mAb (antibody, V domains shown)
VH: QVQLQESGPGLVQPSQTLTLTCTVSGDSISNEDYHWTWIRQHPGKGLEWMGYLQYSGNTNYNPSLKSRMTISVDTSKNQFSLRLNSVTAADTAVYFCATSIVLTGMSNKIQPFDYWGQGTLVTVSS
VL: SYELTQPPSVSVSPGQMARITCSGEALPKKYAYWYQQKGGQFPVLVIYKDTERPSGIPERFSGSSSGTIVTLTISGVQPEDEADYYCLSADTSGTWVFGGGTKLTVL
notes: also called Group 3 mAb; fusion peptide-specific mAb
B2: C13C9 mAb (antibody, V domains shown)
VH: EVQLVQSGPEVKKPGTSARVSCKASGFTSKNTALQWVRQARGQPLEWMGWIDISNYITNYAQKFRGRLTITWDLSASMAYMELSSLRSEDTAVYYCAAVGKDDDVLTGGNKYFDHWGQGTLVTVSS
VL: SYELTQPPSVSVSPGQTARITCSGDALPKKYAYWYQQKSGQAPVLVIHEDDKRPSGIPGRFSASSSGTTATLTISGAQVEDEADYYCYSTDTNDNHAFGSGTKLTVL
notes: as for B1
B3: C77G12 mAb (antibody, V domains shown)
VH: EVQLVESGGGVVQPGRSLRISCAVSGFTFGSYAMHWVRQAPGKGLEWVGVMSSDGHNEYYADSVKGRFTISRDNSRNKLYLEMNNLRVDDTAVFYCARGSDYVDDSPPLHYWGQGTLVTVSS
VL: DIQLTQSPSSLSASIGDRVTITCRASQDIANKLAWFQQAPGKAPKSLIYAASRLQSGVPSQFSGSGSGTDFTLTIESLQAGDFATYFCQQYDSFPFTFGPGTKVDVK
notes: as for B1
B4: VP12E7 mAb (antibody, V domains shown)
VH: QVQLVQSGGGVVQPGESLRLSCSGSGFTFNNYIMHWVRQAPGQGLDYVSGIGSDGRNTNYGDSVKGRFTISRDNSKDTLYLQMTSLRAEDTAFYYCVKGLDVLRFLDLSTPSGERLDAFDIWGQGTMVTVSS
VL: DIVMTQSPSFLSASVGDRVTITCRASQGISNYLAWYQQKPGKAPHLLIYAASTLQSGVPSRFSGSGSGTEFTLTISSLQPEDFATYYCQQLNSYPLFTFGPGTKVDIE
notes: as for B1
B5: VN01H1 mAb (antibody, V domains shown)
VH: EVQLVESGGGLVLPGGSLRLSCSASGFTFSDFSMHWVRQSPGKGLEYVSAITSSGSSTYYPDSVKGRFTISRDNSKNTLYLQMGSLRVEDTAVYWCVKNSDVFRFPHLYFDVWGRGTLVTVSS
VL: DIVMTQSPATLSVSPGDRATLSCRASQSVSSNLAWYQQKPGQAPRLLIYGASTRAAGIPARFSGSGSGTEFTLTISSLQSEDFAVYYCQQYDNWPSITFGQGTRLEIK
notes: as for B1
B6: C13B8 Fab (Fab, V domains shown)
VH: B1 VH
VL: B1 VL
B7: C13C9 Fab (Fab, V domains shown)
VH: B2 VH
VL: B2 VL
B8: C77G12 Fab (Fab, V domains shown)
VH: B3 VH
VL: B3 VL
B9: VP12E7 Fab (Fab, V domains shown)
VH: B4 VH
VL: B4 VL
B10: VN01H1 Fab (Fab, V domains shown)
VH: B5 VH
VL: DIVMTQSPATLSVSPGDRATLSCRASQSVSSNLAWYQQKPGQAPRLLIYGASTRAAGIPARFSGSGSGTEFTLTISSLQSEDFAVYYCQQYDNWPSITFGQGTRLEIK

Target: T1, SARS-CoV-2 S fusion peptide K811[…]825
Test: ELISA
Details: both partners purified

Binder | binding result
B1 | binds
B2 | binds
B3 | binds
B4 | binds
B5 | binds

Target: T3, full length SARS-CoV-2 S Wuhan-Hu-1 on HEK293T cells (Severe acute respiratory syndrome …, UniProt P0DTC2)
T3 construct: source: HEK293T, transiently transfected, on the cell surface
Test: flow cytometry on cells
Details: one partner purified

Binder | binding result
B1 | binds
B2 | binds
B3 | binds
B4 | binds
B5 | binds

Target: T4, SARS-CoV S on HEK293T cells (Severe acute respiratory syndrome …, UniProt P59594)
T4 construct: source: HEK293T, transfected, on the cell surface
Test: flow cytometry on cells
Details: one partner purified

Binder | binding result
B1 | binds
B2 | binds
B3 | binds
B4 | binds
B5 | binds

Target: T5, MERS-CoV S on HEK293T cells (MERS-CoV, strain ; entry is …, UniProt K9N5Q8)
T5 construct: source: HEK293T, transfected, on the cell surface
Test: flow cytometry on cells
Details: one partner purified

Binder | binding result
B1 | binds
B2 | binds
B3 | binds
B4 | binds
B5 | binds

Target: NL63 S on HEK293T cells (Human coronavirus NL63, GenBank …, UniProt A0A1L2YVI8)
Test: flow cytometry on cells
Details: one partner purified

NL63 S on HEK293T cells, sequence (Q6Q1S2 19-1356): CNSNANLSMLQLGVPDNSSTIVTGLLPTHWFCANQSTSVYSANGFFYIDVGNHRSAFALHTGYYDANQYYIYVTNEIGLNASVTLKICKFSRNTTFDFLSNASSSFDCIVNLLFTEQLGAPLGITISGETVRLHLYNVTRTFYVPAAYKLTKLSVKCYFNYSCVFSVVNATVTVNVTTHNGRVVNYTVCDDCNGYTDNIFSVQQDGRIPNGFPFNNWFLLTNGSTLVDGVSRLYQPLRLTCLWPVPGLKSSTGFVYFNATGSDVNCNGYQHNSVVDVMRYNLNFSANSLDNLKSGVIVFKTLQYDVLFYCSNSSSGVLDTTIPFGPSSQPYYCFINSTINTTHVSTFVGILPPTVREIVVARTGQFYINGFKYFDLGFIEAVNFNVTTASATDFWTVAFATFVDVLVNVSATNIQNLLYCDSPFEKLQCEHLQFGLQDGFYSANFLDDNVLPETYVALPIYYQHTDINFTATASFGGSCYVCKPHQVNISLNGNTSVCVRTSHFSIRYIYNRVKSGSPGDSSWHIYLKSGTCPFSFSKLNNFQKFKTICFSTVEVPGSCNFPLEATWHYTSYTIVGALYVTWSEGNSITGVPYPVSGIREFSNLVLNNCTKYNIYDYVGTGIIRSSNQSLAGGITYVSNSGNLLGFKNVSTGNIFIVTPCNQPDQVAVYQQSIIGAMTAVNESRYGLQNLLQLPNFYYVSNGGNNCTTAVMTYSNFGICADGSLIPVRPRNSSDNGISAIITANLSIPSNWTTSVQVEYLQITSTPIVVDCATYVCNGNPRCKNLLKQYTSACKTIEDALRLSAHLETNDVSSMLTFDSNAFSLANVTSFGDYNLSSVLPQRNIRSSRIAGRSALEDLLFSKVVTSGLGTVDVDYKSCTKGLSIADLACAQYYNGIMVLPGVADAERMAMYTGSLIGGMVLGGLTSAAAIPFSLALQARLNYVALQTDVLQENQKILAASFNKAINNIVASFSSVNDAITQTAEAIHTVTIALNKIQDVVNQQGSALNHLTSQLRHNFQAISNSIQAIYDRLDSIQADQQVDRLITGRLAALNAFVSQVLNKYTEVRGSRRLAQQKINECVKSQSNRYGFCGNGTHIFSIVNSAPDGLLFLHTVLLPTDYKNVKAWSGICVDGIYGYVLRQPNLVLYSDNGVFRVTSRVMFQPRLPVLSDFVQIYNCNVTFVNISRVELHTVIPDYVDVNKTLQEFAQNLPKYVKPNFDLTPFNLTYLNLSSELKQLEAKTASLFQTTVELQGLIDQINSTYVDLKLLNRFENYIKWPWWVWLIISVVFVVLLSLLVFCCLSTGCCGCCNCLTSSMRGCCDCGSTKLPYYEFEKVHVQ

Binder | binding result
B1 | binds
B2 | binds
B3 | binds
B4 | binds
B5 | binds

Target: T6, 229E S on HEK293T cells (Human coronavirus 229E, GenBank …)
T6 construct: source: HEK293T, transiently transfected, on the cell surface
Test: flow cytometry on cells
Details: one partner purified

Binder | binding result
B1 | binds
B2 | binds
B3 | binds
B4 | binds
B5 | binds

Target: T1, SARS-CoV-2 S fusion peptide K811[…]825
Test: crystal structure; Fab in complex with the fusion peptide K811-K825
Details: both partners purified

Binder | binding result
B6 | binds
B7 | binds
B8 | binds
B9 | binds
B10 | binds

Target: SARS-CoV-2 S protein (commercially available, recombinant) (SARS-CoV-2 (Wuhan-Hu-1 assumed), UniProt P0DTC2)
Test: ELISA; mAbs titrated on commercially available hCoV S proteins; EC50 (Fig. 1E)
Details: both partners purified

Binder | binding result
B1 | binds
B2 | binds
B3 | binds
B4 | binds
B5 | binds

Target: OC43 S protein (commercially available, recombinant) (human coronavirus OC43, strain not …, UniProt P36334)
Test: as above
Details: both partners purified

OC43 S protein (commercially available, recombinant), sequence (P36334 14-1353): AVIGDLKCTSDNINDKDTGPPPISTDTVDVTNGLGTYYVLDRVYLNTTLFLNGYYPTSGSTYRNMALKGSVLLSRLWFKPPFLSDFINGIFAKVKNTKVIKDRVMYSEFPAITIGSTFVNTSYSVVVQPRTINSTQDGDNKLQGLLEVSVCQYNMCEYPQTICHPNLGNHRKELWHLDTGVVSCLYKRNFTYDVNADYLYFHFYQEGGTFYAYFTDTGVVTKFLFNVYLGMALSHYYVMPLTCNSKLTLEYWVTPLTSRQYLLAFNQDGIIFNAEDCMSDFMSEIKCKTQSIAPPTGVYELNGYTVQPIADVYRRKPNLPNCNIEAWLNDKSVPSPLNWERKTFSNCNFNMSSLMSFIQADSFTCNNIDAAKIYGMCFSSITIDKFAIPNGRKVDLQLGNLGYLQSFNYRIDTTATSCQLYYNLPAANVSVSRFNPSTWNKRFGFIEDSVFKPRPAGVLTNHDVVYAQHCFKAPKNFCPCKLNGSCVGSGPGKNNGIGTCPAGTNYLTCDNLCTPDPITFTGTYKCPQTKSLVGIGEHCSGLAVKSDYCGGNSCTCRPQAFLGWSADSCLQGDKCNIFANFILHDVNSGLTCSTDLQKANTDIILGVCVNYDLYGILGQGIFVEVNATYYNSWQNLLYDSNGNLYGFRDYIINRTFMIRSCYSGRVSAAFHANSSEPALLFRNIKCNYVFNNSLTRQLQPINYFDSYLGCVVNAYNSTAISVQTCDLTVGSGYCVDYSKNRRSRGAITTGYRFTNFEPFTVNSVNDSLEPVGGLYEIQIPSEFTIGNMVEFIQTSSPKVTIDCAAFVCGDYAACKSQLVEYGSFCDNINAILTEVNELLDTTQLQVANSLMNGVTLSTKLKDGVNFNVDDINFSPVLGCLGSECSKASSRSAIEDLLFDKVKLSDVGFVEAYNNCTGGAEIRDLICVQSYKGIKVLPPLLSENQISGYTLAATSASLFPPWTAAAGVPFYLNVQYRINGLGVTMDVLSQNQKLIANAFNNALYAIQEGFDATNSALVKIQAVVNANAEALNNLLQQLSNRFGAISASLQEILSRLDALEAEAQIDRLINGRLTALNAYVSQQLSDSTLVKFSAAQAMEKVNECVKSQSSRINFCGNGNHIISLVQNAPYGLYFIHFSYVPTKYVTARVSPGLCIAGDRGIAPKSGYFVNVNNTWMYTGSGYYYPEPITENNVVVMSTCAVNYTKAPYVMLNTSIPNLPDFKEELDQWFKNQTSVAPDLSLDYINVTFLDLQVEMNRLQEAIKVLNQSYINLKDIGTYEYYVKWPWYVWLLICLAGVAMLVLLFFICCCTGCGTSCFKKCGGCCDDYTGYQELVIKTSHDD

Binder | binding result
B1 | binds
B2 | binds
B3 | binds
B4 | binds
B5 | binds

Target: HKU1 S protein (commercially available, recombinant) (human coronavirus HKU1, isolate not …, UniProt Q5MQD0)
Test: as above
Details: both partners purified

HKU1 S protein (commercially available, recombinant), sequence (Q5MQD0 13-1356): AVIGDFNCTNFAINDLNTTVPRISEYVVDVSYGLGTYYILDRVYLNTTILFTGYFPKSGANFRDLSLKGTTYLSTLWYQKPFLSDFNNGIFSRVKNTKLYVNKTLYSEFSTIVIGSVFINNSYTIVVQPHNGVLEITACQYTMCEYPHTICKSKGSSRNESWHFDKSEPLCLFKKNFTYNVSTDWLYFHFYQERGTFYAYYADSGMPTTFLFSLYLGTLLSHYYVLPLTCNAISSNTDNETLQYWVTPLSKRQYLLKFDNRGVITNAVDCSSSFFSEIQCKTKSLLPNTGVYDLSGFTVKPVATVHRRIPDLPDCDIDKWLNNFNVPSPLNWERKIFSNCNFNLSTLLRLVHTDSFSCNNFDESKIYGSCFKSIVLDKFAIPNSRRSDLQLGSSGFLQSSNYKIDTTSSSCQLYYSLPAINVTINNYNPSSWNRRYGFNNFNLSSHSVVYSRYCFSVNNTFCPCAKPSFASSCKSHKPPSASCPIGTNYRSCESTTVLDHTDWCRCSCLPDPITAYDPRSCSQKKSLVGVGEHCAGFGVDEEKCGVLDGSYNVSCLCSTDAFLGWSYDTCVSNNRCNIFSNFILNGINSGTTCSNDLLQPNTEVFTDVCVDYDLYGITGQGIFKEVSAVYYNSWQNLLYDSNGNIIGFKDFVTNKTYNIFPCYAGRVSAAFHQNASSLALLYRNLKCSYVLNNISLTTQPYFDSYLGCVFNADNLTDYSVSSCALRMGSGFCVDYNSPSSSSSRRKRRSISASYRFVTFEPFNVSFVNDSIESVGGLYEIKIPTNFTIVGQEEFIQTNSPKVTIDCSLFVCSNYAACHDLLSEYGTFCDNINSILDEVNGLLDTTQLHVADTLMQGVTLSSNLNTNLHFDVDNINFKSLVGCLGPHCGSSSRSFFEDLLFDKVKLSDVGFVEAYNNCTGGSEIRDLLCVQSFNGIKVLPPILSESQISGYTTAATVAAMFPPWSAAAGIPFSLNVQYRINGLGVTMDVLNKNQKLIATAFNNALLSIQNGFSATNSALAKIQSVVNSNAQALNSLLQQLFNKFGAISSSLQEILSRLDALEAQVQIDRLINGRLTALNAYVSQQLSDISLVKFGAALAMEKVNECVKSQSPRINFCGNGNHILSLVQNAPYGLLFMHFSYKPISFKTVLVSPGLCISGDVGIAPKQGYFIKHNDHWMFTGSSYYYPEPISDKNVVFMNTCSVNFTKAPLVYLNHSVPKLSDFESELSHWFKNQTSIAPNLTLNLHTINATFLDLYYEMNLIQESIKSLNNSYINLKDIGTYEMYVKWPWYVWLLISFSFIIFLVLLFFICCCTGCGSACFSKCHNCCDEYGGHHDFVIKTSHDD

Binder | binding result
B1 | binds
B2 | binds
B3 | binds
B4 | binds
B5 | binds

Target: NL63 S protein (commercially available, recombinant) (human coronavirus NL63, strain of …, UniProt A0A1L2YVI8)
Test: as above
Details: both partners purified

Binder | binding result
B1 | binds
B2 | binds
B3 | binds
B4 | binds
B5 | binds

Target: T2, 229E S protein (commercially available, …)
Test: as above
Details: both partners purified

Binder | binding result
B1 | binds
B2 | binds
B3 | binds
B4 | binds
B5 | binds

Source: PMC9348755 (Science (New York, N.y.), 2022)
